From patent US20060257938A1, “Method of screening for drugs that block ligand binding to a lipid binding protein” (priority 2005, published 2006)
Where “and” joins values, the source holds several entries; their conditions need not be identical. Equal entries are not always repeated.

B1: 14T, 72A (protein, listed as Rattus norvegicus)
chain: AFDGTWKVDRNENTEKFMEKMGINVVKRKLGAHDNLKLTITQEGNKFTVKESSNFRNIDVVFELGVDFAYSAADGTELTGTWTMEGNKLVGKFKRVDNGKELIAVREISGNELIQTYTYEGVEAKRIFKKE
modifications: PEPTIDE (1)...(131) wild-type rat intestinal fatty acid binding protein
B2: 14V, 72A (protein, listed as Rattus norvegicus)
chain: AFDGTWKVDRNENVEKFMEKMGINVVKRKLGAHDNLKLTITQEGNKFTVKESSNFRNIDVVFELGVDFAYSAADGTELTGTWTMEGNKLVGKFKRVDNGKELIAVREISGNELIQTYTYEGVEAKRIFKKE
modifications: PEPTIDE (1)...(131) wild-type rat intestinal fatty acid binding protein
B3: 17G, 72A (protein, listed as Rattus norvegicus)
chain: AFDGTWKVDRNENYEKGMEKMGINVVKRKLGAHDNLKLTITQEGNKFTVKESSNFRNIDVVFELGVDFAYSAADGTELTGTWTMEGNKLVGKFKRVDNGKELIAVREISGNELIQTYTYEGVEAKRIFKKE
modifications: PEPTIDE (1)...(131) wild-type rat intestinal fatty acid binding protein
B4: 17F, 72A (protein, listed as Rattus norvegicus)
chain: AFDGTWKVDRNENYEKFMEKMGINVVKRKLGAHDNLKLTITQEGNKFTVKESSNFRNIDVVFELGVDFAYSAADGTELTGTWTMEGNKLVGKFKRVDNGKELIAVREISGNELIQTYTYEGVEAKRIFKKE
modifications: PEPTIDE (1)...(131) wild-type rat intestinal fatty acid binding protein
B5: 17H, 72A (protein, listed as Rattus norvegicus)
chain: AFDGTWKVDRNENYEKHMEKMGINVVKRKLGAHDNLKLTITQEGNKFTVKESSNFRNIDVVFELGVDFAYSAADGTELTGTWTMEGNKLVGKFKRVDNGKELIAVREISGNELIQTYTYEGVEAKRIFKKE
modifications: PEPTIDE (1)...(131) wild-type rat intestinal fatty acid binding protein
B6: 102L, 72A (protein, listed as Rattus norvegicus)
chain: AFDGTWKVDRNENYEKFMEKMGINVVKRKLGAHDNLKLTITQEGNKFTVKESSNFRNIDVVFELGVDFAYSAADGTELTGTWTMEGNKLVGKFKRVDNGKELIAVREISGNELIQTYTYEGVEAKRIFKKE
modifications: PEPTIDE (1)...(131) wild-type rat intestinal fatty acid binding protein
B7: 17D, 72A (protein, listed as Rattus norvegicus)
chain: AFDGTWKVDRNENYEKDMEKMGINVVKRKLGAHDNLKLTITQEGNKFTVKESSNFRNIDVVFELGVDFAYSAADGTELTGTWTMEGNKLVGKFKRVDNGKELIAVREISGNELIQTYTYEGVEAKRIFKKE
modifications: PEPTIDE (1)...(131) wild-type rat intestinal fatty acid binding protein
B8: 17A, 72A (protein, listed as Rattus norvegicus)
chain: AFDGTWKVDRNENYEKAMEKMGINVVKRKLGAHDNLKLTITQEGNKFTVKESSNFRNIDVVFELGVDFAYSAADGTELTGTWTMEGNKLVGKFKRVDNGKELIAVREISGNELIQTYTYEGVEAKRIFKKE
modifications: PEPTIDE (1)...(131) wild-type rat intestinal fatty acid binding protein
B9: 14W, 72A (protein, listed as Rattus norvegicus)
chain: AFDGTWKVDRNENWEKFMEKMGINVVKRKLGAHDNLKLTITQEGNKFTVKESSNFRNIDVVFELGVDFAYSAADGTELTGTWTMEGNKLVGKFKRVDNGKELIAVREISGNELIQTYTYEGVEAKRIFKKE
modifications: PEPTIDE (1)...(131) wild-type rat intestinal fatty acid binding protein
B10: 17E, 72A (protein, listed as Rattus norvegicus)
chain: AFDGTWKVDRNENYEKEMEKMGINVVKRKLGAHDNLKLTITQEGNKFTVKESSNFRNIDVVFELGVDFAYSAADGTELTGTWTMEGNKLVGKFKRVDNGKELIAVREISGNELIQTYTYEGVEAKRIFKKE
modifications: PEPTIDE (1)...(131) wild-type rat intestinal fatty acid binding protein
B11: 17C, 72A (protein, listed as Rattus norvegicus)
chain: AFDGTWKVDRNENYEKCMEKMGINVVKRKLGAHDNLKLTITQEGNKFTVKESSNFRNIDVVFELGVDFAYSAADGTELTGTWTMEGNKLVGKFKRVDNGKELIAVREISGNELIQTYTYEGVEAKRIFKKE
modifications: PEPTIDE (1)...(131) wild-type rat intestinal fatty acid binding protein

Columns and labels:
Type in all cases: binding
[1] = Probe fluorescence ratio response to oleic acid relative to ADIFAB2; details: response relative to ADIFAB2
Method in brief: (§1)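 Each fatty acid's response was expressed relative to ADIFAB2, the rI-FABP-L72A probe, as ΔR/ΔRreference. ΔR is the change in the background-corrected two-wavelength intensity ratio R=Fλ1/Fλ2 from its analyte-free baseline R0. Emission was read near about 420-480 nm for unbound and about 495-580 nm for FFA-bound probe.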

[2] = Probe fluorescence ratio response to palmitic acid relative to ADIFAB2; details: response relative to ADIFAB2
Method in brief: as §1

[3] = Probe fluorescence ratio response to linoleic acid relative to ADIFAB2; details: response relative to ADIFAB2
Method in brief: as §1

[4] = Probe fluorescence ratio response to linolenic acid relative to ADIFAB2; details: response relative to ADIFAB2
Method in brief: as §1

[5] = Probe fluorescence ratio response to arachidonic acid relative to ADIFAB2; details: arachidonic acid; response relative to ADIFAB2
Method in brief: as §1

| Molecule | DR/DR OA [1] | DR/DR PA [2] | DR/DR LA [3] | DR/DR LNA [4] | DR/DR AA [5] |
| --- | --- | --- | --- | --- | --- |
| B1 | 0.56 | 0.36 | 0.76 | 1.15 | 0.64 |
| B2 | 0.51 and 0.513 | 0.43 | 0.84 and 0.836 | 0.87 and 0.868 | 0.76 and 0.756 |
| B3 | 0.52 | 0.28 | 0.58 | 0.62 | 0.48 |
| B4 | 1.42 | 1.14 | 1.35 | 1.38 | 1.37 |
| B5 | 0.40 | 0.22 | 0.48 | 0.50 | 0.52 |
| B6 | 1.40 and 1.366 | 0.97 and 1.012 | 1.40 and 1.267 | 1.41 and 1.284 | 1.25 and 1.103 |
| B7 | 0.26 | 0.16 | 0.31 | 0.34 | 0.28 |
| B8 | 0.38 | 0.24 | 0.56 | 0.97 | 0.53 |
| B9 | 0.26 | 0.23 | 0.33 | 0.31 | 0.30 |
| B10 | 0.84 | 0.53 | 0.90 | 0.88 | 0.80 |
| B11 | 0.31 | 0.10 | 0.25 | 0.26 | 0.15 |
